# B1: membrane scaffold protein MSP1D1 (other)
# chain: STFSKLREQLGPVTQEFWDNLEKETEGLRQEMSKDLEEVKAKVQPYLDDFQKKWQEEMELYRQKVEPLRAELQEGARQKLHELQEKLSPLGEEMRDRARAHVDALRTHLAPYSDELRQRLAARLEALKENGGARLAEYHAKATEHLSTLSEKAKPALEDLRQGLLPVLESFKVSFLSALEEYTKKLNTQ
# modifications: biotinylated with EZ-link NHS-Biotin (biotin/antigen ratio 2 - 2.5) for BLI only
# Molecular target: MbNbF3^c7HopQ (H. pylori)
# Assay: BLI
binder,measurement,value
B1,binding result,binds
